Results taken from US20150210994A1 (CHILDREN S HOSPITAL OF PHILADELPHIA, published 2015).
Values belong to the molecule of their own block, whether it stands above or below them.

Assays:
[1] = biological target: soluble mouse EPCR (mouse) (UniProt Q64695); experiment: isothermal titration calorimetry, soluble murine EPCR
[2] = biological target: mouse endothelial protein C receptor (mEPCR), full-length, on CHO-K1 cells (mouse) (UniProt Q64695); experiment: saturation binding on CHO-K1 cells with mEPCR, 10 to 1000 nM ligand; bound material eluted and quantified by western blot; binding to CHO-K1 cells without mEPCR subtracted; fit of bound against ligand concentration
[3] = biological target: T1, Human FVIIa (NovoSeven) (human, UniProt P08709 61-466); experiment: CHO-K1 cells expressing human EPCR, western blot of bound fraction
T1 construct: mature
T1 sequence (looked up): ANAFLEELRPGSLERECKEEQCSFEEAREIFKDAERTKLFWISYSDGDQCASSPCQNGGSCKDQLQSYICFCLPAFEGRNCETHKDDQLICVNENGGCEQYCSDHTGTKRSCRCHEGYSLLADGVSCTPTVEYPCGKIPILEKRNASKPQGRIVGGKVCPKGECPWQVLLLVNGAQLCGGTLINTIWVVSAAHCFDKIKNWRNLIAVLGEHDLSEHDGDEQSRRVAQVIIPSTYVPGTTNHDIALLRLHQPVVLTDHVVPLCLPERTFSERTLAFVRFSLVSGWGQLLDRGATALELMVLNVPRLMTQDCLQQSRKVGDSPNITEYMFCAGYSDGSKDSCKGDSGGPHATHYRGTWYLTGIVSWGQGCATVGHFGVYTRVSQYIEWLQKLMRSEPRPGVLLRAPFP
Method: (§1) FIG. 2A: Scheme for determining and quantifying binding of proteins to surface exposed mouse EPCR (mEPCR). The protein whose mEPCR binding is under investigation is added onto CHO-K1 cells expressing mEPCR (mEPCR+ve) or not (mEPCR−ve). Binding is done in the presence of physiological concentration of calcium and magnesium (1.6 mM and 0.6 mM, respectively). Following washing, the bound material is eluted with EDTA (10 mM). The bound, unbound and a portion of total loaded material are then subjected to polyacrylamide gel electrophoresis, transferred to nitrocellulose and detected by western blotting using protein-specific antibodies. FIG. 2B: Human plasma-derived protein C (hPC) or murine PC (mPC) that are known ligands for murine EPCR, were incubated with CHO-KI cells with or without murine EPCR expression. […] A variant mFVIIa bearing part of the mPC Gla domain ([1-11 mPC)-mFVIIa) restored binding of this chimeric molecule to murine EPCR.
(§2) FIG. 12. Binding of variants of human activated FVII with amino acid changes at position 8 (normally a Leucine). Conditioned medium from transient transfection was added on CHO-K1 cells expressing human EPCR, as described in FIG. 2. […] Following the wash of unbound material, the bound fraction was visualized by western blotting (shown in the bottom image). […] Human FVIIa (NovoSeven) is shown as a control for positive binding. […]

[4] = biological target: T2, wildtype human FVIIa (Leu at position 8), PACE/furin construct (human, UniProt P08709 61-466); experiment: conditioned medium on CHO-K1 cells expressing human EPCR, western blot of bound fraction
T2 construct: mature; Tested as conditioned medium from transiently transfected HEK-293 cells
T2 sequence (looked up): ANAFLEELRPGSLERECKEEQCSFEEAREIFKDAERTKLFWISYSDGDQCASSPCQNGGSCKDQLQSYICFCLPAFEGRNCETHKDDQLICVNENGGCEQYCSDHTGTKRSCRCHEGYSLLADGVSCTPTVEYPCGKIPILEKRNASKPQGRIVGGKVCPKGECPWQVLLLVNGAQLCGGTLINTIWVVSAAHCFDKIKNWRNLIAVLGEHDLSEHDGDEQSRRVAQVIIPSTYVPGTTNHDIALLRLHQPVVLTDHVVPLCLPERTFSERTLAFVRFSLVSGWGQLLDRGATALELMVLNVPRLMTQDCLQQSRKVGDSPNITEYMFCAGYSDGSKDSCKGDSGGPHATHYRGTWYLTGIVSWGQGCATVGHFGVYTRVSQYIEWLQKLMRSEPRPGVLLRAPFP
Method: as §1, §2

[5] = biological target: human plasma-derived protein C (hPC) (human, UniProt P04070 43-461); experiment: CHO-K1 cells with or without murine EPCR, EDTA elution, western blot
Chain of human plasma-derived protein C (hPC) (P04070 43-461): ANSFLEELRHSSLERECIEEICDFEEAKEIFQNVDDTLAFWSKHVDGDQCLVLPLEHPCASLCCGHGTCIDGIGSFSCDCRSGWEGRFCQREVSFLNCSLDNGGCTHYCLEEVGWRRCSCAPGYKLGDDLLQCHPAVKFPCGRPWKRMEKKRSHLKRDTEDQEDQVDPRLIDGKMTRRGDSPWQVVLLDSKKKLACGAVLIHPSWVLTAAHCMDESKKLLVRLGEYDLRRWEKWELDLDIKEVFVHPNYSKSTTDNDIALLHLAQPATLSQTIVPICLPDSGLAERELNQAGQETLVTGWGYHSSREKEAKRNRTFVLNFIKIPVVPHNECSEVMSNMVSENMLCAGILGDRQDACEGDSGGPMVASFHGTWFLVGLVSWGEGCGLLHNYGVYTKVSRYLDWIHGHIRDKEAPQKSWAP
Method: as §1

[6] = biological target: T3, mPC F4L (mouse, UniProt P33587 42-460); experiment: HEK-293 supernatant on CHO-K1 cells with or without mEPCR, western blot
T3 construct: Tested as HEK-293 supernatant after transient expression; Position 4 is counted on the mature polypeptide; also called mouse PC Phe4 to Leu
T3 sequence (looked up): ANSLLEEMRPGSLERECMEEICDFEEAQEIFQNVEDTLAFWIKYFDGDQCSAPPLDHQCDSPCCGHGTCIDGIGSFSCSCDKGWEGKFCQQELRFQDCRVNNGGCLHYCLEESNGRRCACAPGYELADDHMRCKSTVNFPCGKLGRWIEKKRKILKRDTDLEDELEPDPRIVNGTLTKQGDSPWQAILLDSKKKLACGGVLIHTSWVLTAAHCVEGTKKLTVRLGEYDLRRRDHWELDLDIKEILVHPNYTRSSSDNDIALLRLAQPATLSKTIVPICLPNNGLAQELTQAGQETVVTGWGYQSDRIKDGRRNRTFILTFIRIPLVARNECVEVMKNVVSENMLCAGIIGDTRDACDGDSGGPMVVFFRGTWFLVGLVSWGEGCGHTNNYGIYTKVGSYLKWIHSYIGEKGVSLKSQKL
Method: as §1, with “The” for “FIG. 2A: Scheme for determining and quantifying binding of proteins to surface exposed mouse EPCR (mEPCR). The”
(§3) FIG. 4A: The Gla domain of the (1-11 mPC)-mFVIIa is shown. The blue box represents the first 11 amino acids of the mouse PC (mPC) Gla domain, whereas the red box represents the portion of the Gla domain of mouse FVIIa. […] Individual mutations were performed to change one amino acid in mFVIIa with the corresponding in (1-11 mPC)-mFVIIa. Following transient expression in HEK-293 cells, supernatant with each protein was incubated with CHO-K1 cells with or without expression of the mouse EPCR receptor. […] From top to bottom, sequences are SEQ ID NOs: 1-5. […]

[7] = biological target: T4, murine protein C (mPC) (mouse, UniProt P33587 42-460); experiment: HEK-293 supernatant on CHO-K1 cells with or without mouse EPCR, western blot of the bound fraction
T4 construct: also called mouse PC; mouse protein C
T4 sequence (looked up): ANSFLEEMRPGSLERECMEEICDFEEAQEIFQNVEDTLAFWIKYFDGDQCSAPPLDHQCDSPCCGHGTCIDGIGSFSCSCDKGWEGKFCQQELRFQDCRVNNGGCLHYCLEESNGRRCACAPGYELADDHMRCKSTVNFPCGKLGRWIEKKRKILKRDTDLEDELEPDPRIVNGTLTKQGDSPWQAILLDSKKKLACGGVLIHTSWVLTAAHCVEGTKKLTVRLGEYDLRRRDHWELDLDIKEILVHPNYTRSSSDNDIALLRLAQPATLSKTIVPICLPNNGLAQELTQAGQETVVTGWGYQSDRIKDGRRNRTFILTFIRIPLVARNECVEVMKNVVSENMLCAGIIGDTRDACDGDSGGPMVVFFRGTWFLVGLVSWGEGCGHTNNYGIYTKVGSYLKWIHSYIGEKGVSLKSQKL
Method: as §1, with “The” for “FIG. 2A: Scheme for determining and quantifying binding of proteins to surface exposed mouse EPCR (mEPCR). The”
as §3

[8] = biological target: T5, mouse FVIIa (mFVIIa) (mouse, UniProt P70375 42-446); experiment: saturation binding on CHO-K1 cells with mEPCR, 10 to 1000 nM ligand; bound material eluted and quantified by western blot; binding to CHO-K1 cells without mEPCR subtracted; fit of bound against ligand concentration
T5 construct: mature; Recombinant; Has a Gla domain; also called mF7a
T5 sequence (looked up): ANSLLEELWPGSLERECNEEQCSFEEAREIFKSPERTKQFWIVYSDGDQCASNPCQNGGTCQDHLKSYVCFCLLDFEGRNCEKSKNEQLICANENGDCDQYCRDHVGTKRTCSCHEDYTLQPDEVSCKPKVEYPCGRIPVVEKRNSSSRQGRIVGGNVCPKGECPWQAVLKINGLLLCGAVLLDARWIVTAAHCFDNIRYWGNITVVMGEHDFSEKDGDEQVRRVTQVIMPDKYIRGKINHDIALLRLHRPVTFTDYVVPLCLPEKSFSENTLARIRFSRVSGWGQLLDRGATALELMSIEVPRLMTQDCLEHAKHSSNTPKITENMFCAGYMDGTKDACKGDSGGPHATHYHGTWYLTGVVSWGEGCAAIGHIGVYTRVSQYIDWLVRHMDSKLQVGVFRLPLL
Method: as §1
FIG. 7. Increasing concentration of ligand (mFVIIa or [1-11 mPC]-mFVIIa) was incubated with CHO-K1 cells without mEPCR (−mEPCR) or with mEPCR (+mEPCR). The experimental strategy described in Example I was followed and bound material was visualized. Following subtraction of non-specific binding (material incubated on CHO-K1[-]mEPCR cells), corrected amount of bound material (nM per 10⁶ cells) was plotted vs. concentration of ligand (nM). […]

Kd [1]: 480 nM | Kd [2]: 340 nM
Molecule: (1-11 mPC)-mFVIIa (from UniProt P70375 42-446) (enzyme)

binding result [3]: binds | binding result [4]: binds
B1: human EPCR on CHO-K1 cells (receptor, UniProt Q9UNN8 18-238, looked up)
chain: SQDASDGLQRLHMLQISYFRDPYHVWYQGNASLGGHLTHVLEGPDTNTTIIQLQPLQEPESWARTQSGLQSYLLQFHGLVRLVHQERTLAFPLTIRCFLGCELPPEGSRAHVFFEVAVNGSSFVSFRPERALWQADTQVTSGVVTFTLQQLNAYNRTRYELREFLEDTCVQYVQKHISAENTKGSQTSRSYTSLVLGVLVGSFIIAGVAVGIFLCTGGRRC
notes: whole, on cells; also called hEPCR

binding result [5]: binds | binding result [6]: no binding | binding result [7]: binds | Kd [8]: 10600 nM
B2: mouse endothelial protein C receptor (mEPCR), full-length, on CHO-K1 cells (receptor, UniProt Q64695 18-242, looked up)
chain: LCNSDGSQSLHMLQISYFQDNHHVRHQGNASLGKLLTHTLEGPSQNVTILQLQPWQDPESWERTESGLQIYLTQFESLVKLVYRERKENVFFPLTVSCSLGCELPEEEEEGSEPHVFFDVAVNGSAFVSFRPKTAVWVSGSQEPSKAANFTLKQLNAYNRTRYELQEFLQDTCVEFLENHITTQNMKGSQTGRSYTSLVLGILMGCFIIAGVAVGIFMCTSGRRC
notes: whole, on cells; also called murine EPCR; mouse EPCR
